Publication PMC8586454, “Structural and Functional Insights Into Skl and Pal Endolysins, Two Cysteine-Amidases With Anti-pneumococcal Activity. Dithiothreitol (DTT) Effect on Lytic Activity” (Frontiers in Microbiology, 2021)

Tests used:
[1] = molecular target: T1, Pal (Streptococcus phage Dp-1, UniProt O03979); assay: SAXS of choline-bound dimer; type: binding; details: 20 mM PB pH 8.0, 4 °C; saturating choline
T1 construct: full-length, untagged, E. coli pT7-7 (pPal, amplified from pMSP11); DEAE-cellulose purified with choline elution, dialysed
T1 sequence (O03979 1-296): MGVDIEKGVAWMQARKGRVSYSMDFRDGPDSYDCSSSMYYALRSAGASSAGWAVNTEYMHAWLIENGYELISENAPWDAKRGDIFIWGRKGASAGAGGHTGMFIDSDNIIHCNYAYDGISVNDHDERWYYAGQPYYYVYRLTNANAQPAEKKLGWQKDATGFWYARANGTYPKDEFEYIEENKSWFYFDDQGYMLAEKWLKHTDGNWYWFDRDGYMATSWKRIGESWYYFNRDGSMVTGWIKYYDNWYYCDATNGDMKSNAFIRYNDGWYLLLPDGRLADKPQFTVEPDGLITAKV

[2] = molecular target: Skl Y264H mutant (Streptococcus mitis prophage φSK137); assay: AUC; sedimentation equilibrium, 20°C, 50 mM Tris–HCl pH 8.0, increasing choline
[3] = molecular target: Skl Y264H mutant (Streptococcus mitis prophage φSK137); assay: AUC; sedimentation velocity, 20°C, PB pH 6.5, under the conditions of the CD titration; choline saturating the lower affinity sites
[4] = molecular target: Skl endolysin (N-acetylmuramoyl-L-alanine amidase of the Streptococcus mitis prophage φSK137), wild type (Streptococcus mitis prophage φSK137); assay: AUC; sedimentation equilibrium, 20°C, single-species model; choline-saturated
[5] = molecular target: Skl endolysin (N-acetylmuramoyl-L-alanine amidase of the Streptococcus mitis prophage φSK137), wild type (Streptococcus mitis prophage φSK137); assay: SAXS; 4°C, 20 mM PB (Pal) or 50 mM Tris–HCl (Skl) pH 8.0, 2–8 mg/ml protein extrapolated to infinite dilution, saturating choline
[6] = molecular target: Skl endolysin (N-acetylmuramoyl-L-alanine amidase of the Streptococcus mitis prophage φSK137), wild type (Streptococcus mitis prophage φSK137); assay: AUC; sedimentation velocity, 20°C, PB pH 6.5, under the conditions of the CD titration; choline saturating the lower affinity sites
[7] = molecular target: the molecule itself; assay: SAXS; 4°C, 20 mM PB (Pal) or 50 mM Tris–HCl (Skl) pH 8.0, 2–8 mg/ml protein extrapolated to infinite dilution, saturating choline
[8] = molecular target: the molecule itself; assay: non-reducing SDS-PAGE (intermolecular disulfide); 0.36 mg/ml protein pretreated with 40 mM iodoacetamide, then 1% SDS, sample buffer without β-mercaptoethanol (SB), 12% gel, Coomassie stain

C[N+](C)(C)CCO [choline]
SAXS of choline-bound dimer [1]: Pal dimer in complex with choline

Skl Y264H mutant (enzyme)
stoichiometry N [2]: 2
percent remaining as monomer [3]: 50%

Skl endolysin (N-acetylmuramoyl-L-alanine amidase of the Streptococcus mitis prophage φSK137), wild type (enzyme)
stoichiometry N [4]: 2
stoichiometry N [5]: 2
stoichiometry N [6]: 2

B1: Pal endolysin (N-acetylmuramoyl-L-alanine amidase of the pneumococcal bacteriophage Dp-1), wild type (enzyme, UniProt O03979 1-296, looked up)
chain: MGVDIEKGVAWMQARKGRVSYSMDFRDGPDSYDCSSSMYYALRSAGASSAGWAVNTEYMHAWLIENGYELISENAPWDAKRGDIFIWGRKGASAGAGGHTGMFIDSDNIIHCNYAYDGISVNDHDERWYYAGQPYYYVYRLTNANAQPAEKKLGWQKDATGFWYARANGTYPKDEFEYIEENKSWFYFDDQGYMLAEKWLKHTDGNWYWFDRDGYMATSWKRIGESWYYFNRDGSMVTGWIKYYDNWYYCDATNGDMKSNAFIRYNDGWYLLLPDGRLADKPQFTVEPDGLITAKV
notes: Pal-coding region amplified from pMSP11; No tag; 1 μM equals 0.0345 mg/ml. 'Full length' rests on 'Pal-coding region was PCR amplified'; also called Pal WT; Pal NAM-amidase; source: E. coli BL21(DE3) or C41(DE3), pT7-7 derivative (pPal), purified (DEAE-cellulose, eluted with choline)
stoichiometry N [7]: 2

B2: Pal C112S–C250S double mutant (enzyme, pneumococcal bacteriophage Dp-1, UniProt O03979 1-296, looked up)
chain: MGVDIEKGVAWMQARKGRVSYSMDFRDGPDSYDCSSSMYYALRSAGASSAGWAVNTEYMHAWLIENGYELISENAPWDAKRGDIFIWGRKGASAGAGGHTGMFIDSDNIIHSNYAYDGISVNDHDERWYYAGQPYYYVYRLTNANAQPAEKKLGWQKDATGFWYARANGTYPKDEFEYIEENKSWFYFDDQGYMLAEKWLKHTDGNWYWFDRDGYMATSWKRIGESWYYFNRDGSMVTGWIKYYDNWYYSDATNGDMKSNAFIRYNDGWYLLLPDGRLADKPQFTVEPDGLITAKV
modifications: free thiols blocked with iodoacetamide before SDS-PAGE
notes: Pal, NAM-amidase of the pneumococcal Dp-1 bacteriophage, with Cys112 and Cys250 changed to serine; source: E. coli BL21(DE3) or C41(DE3), pT7-7 derivative (made from pPal-C250S), purified (DEAE-cellulose, eluted with choline)
binding result [8]: binds

B3: Pal C112S mutant (enzyme, pneumococcal bacteriophage Dp-1, UniProt O03979 1-296, looked up)
chain: MGVDIEKGVAWMQARKGRVSYSMDFRDGPDSYDCSSSMYYALRSAGASSAGWAVNTEYMHAWLIENGYELISENAPWDAKRGDIFIWGRKGASAGAGGHTGMFIDSDNIIHSNYAYDGISVNDHDERWYYAGQPYYYVYRLTNANAQPAEKKLGWQKDATGFWYARANGTYPKDEFEYIEENKSWFYFDDQGYMLAEKWLKHTDGNWYWFDRDGYMATSWKRIGESWYYFNRDGSMVTGWIKYYDNWYYCDATNGDMKSNAFIRYNDGWYLLLPDGRLADKPQFTVEPDGLITAKV
modifications: free thiols blocked with iodoacetamide before SDS-PAGE
notes: Pal, NAM-amidase of the pneumococcal Dp-1 bacteriophage, with Cys112 changed to serine; source: E. coli BL21(DE3) or C41(DE3), pT7-7 derivative, purified (DEAE-cellulose, eluted with choline)
binding result [8]: binds
